Test results taken from patent US20240261403A1 (published 2024).

T1: EGFR L858R peptide on HLA-A*33:03 (human)
T1 peptide: HVKITDFGR

B1: TCR (i) with CDR3 alpha SEQ ID NO: 1 and CDR3 beta SEQ ID NO: 13 (Table 2, rank 1) (TCR, V domains shown)
Valpha: KQEVTQIPAALSVPEGENLVLNCSFTDSAIYNLQWFRQDPGKGLTSLLLIQSSQREQTSGRLNASLDKSSGRSTLYIAASQPGDSATYLCAFIGHGGSQGNLIFGRGTSLIVHP
Vbeta: NAGVTQTPKFQVLKTGQSMTLQCAQDMNHEYMSWYRQDPGMGLRLIHYSVGAGITDQGEVPNGYNVSRSTTEDFPLRLLSAAPSQTSVYFCASSMQGAMSEQFFGPGTRLTVL
B2: TCR (ii) with CDR3 alpha SEQ ID NO: 2 and CDR3 beta SEQ ID NO: 14 (Table 2, rank 2) (TCR, V domains shown)
Valpha: KQEVTQIPAALSVPEGENLVLNCSFTDSAIYNLQWFRQDPGKGLTSLLLIQSSQREQTSGRLNASLDKSSGRSTLYIAASQPGDSATYLCAATGTYKYIFGRGTSLIVHP
Vbeta: NAGVTQTPKFQVLKTGQSMTLQCAQDMNHEYMSWYRQDPGMGLRLIHYSVGAGITDQGEVPNGYNVSRSTTEDFPLRLLSAAPSQTSVYFCASSPEFARALDNQPQHFGPGTRLTVL

Biological target: T1, EGFR L858R peptide on HLA-A*33:03
Assay: multimer staining

| Binder | binding result |
| --- | --- |
| B1 | recognises |
| B2 | recognises |
